Among the data in the FLAb antibody collection (doi:10.7554/elife.23156) are Kd and yeast surface expression values, retold here.

Bounds are passed on as bounds.

To fix the notation:
B1: scFv; the commonest letter at each place (parent)
chain 1: EVKLDETGGGLVQPGRPMKLSCVASGFTFSDYWMNWVRQSPEKGLEWVAQIRNKPYNYETYYSDSVKGRFTISRDDSKSSVYLQMNNLRVEDMGIYYCTGSYYGMDYWGQGTSVTVS
chain 2: DVVMTQTPLSLPVSLGDQASISCRSSQSLVHSNGNTYLRWYLQKPGQSPKVLIYKVSNRFSGVPDRFSGSGSGTDFTLKISRVEAEDLGVYFCSQSTHVPWTFGGGTKLEIK

In the data set “fluorescein” the parent is B1. Kind of data set: Kd (Tite-Seq). Conditions: with fluorescein; format: scFv 4-4-20, heavy + light.
Variants of B1 are the subject of data set [1]. The experiment in a line: yeast surface expression (ratio to wild type); higher = more expressed. As to conditions: format: scFv 4-4-20, heavy + light.

With chain 1 T28D F29Y, the Kd in the data set with fluorescein stood at 0.00871 µM. Also, the yeast surface expression in data set [1] was found to be 0.975.

Regarding chain 1 S101Q Y102R, the Kd with fluorescein is at least 10 µM. In data set [1], the yeast surface expression amounted to 1.07.

Consider chain 1 T28C M34S, for which the Kd with fluorescein is at least 10 µM. Also, in data set [1], the yeast surface expression is 0.611.

Take chain 1 S101Q M105V: in the data set with fluorescein, the Kd is at least 10 µM. The yeast surface expression in data set [1] was found to be 0.835.

As for chain 1 S101Q M105S, in the data set with fluorescein, the Kd is at least 10 µM. Also, in data set [1], the yeast surface expression came out at 0.853.

Take chain 1 S101Q M105Y: the Kd in the data set with fluorescein is at least 10 µM. Besides, the yeast surface expression in data set [1] came to 0.795.

Regarding chain 1 S101Q G104V, the Kd with fluorescein is at least 10 µM. For the same variant, the yeast surface expression in data set [1] is 0.296.

As to chain 1 S101Q G104R, the Kd with fluorescein is at least 10 µM. Besides, the yeast surface expression in data set [1] was 0.384.

As to chain 1 S101Q G104P, the Kd with fluorescein was at least 10 µM. Besides, the yeast surface expression in data set [1] amounted to 0.539.

For the variant chain 1 T28C D31F M34A, the Kd in the data set with fluorescein was at least 10 µM. Besides, the yeast surface expression in data set [1] is 0.672.

Turning to chain 1 T28A Y32H, the Kd in the data set with fluorescein was 0.0318 µM. In addition, in data set [1], the yeast surface expression came to 0.717.

On to chain 1 T28A Y32V, for which the Kd in the data set with fluorescein is at least 10 µM. Besides, the yeast surface expression in data set [1] amounted to 1.32.

For chain 1 T28A Y32T, the Kd in the data set with fluorescein is at least 10 µM. In addition, the yeast surface expression in data set [1] came to 1.2.

Take chain 1 T28A Y32K: the Kd with fluorescein is 3.55 µM. Besides, the yeast surface expression in data set [1] was found to be 1.02.

chain 1 T28A W33R M34S: in the data set with fluorescein, the dissociation constant (Kd) was at least 10 µM. Also, the yeast surface expression in data set [1] was 1.12.

Regarding chain 1 T28A F29Y, the Kd with fluorescein was determined as 0.0015 µM. Besides, the yeast surface expression in data set [1] was 1.06.

As to chain 1 T28A F29K, the Kd in the data set with fluorescein was at least 10 µM. Moreover, the yeast surface expression in data set [1] amounted to 0.821.

chain 1 T28A F29V: in the data set with fluorescein, the Kd amounted to 0.00638 µM. Besides, the yeast surface expression in data set [1] amounted to 1.02.

For chain 1 S101W, in the data set with fluorescein, the Kd was at least 10 µM. Also, the yeast surface expression in data set [1] stood at 0.618.

For the variant chain 1 S101M, in the data set with fluorescein, the Kd was at least 10 µM. Further, the yeast surface expression in data set [1] is 0.591.

Regarding chain 1 S101T, in the data set with fluorescein, the Kd was at least 10 µM. In data set [1], the yeast surface expression came out at 0.88.

For the variant chain 1 S101P, the Kd in the data set with fluorescein was at least 10 µM. Further, in data set [1], the yeast surface expression was found to be 0.244.

For the variant chain 1 S101Y, the Kd with fluorescein is at least 10 µM. Moreover, the yeast surface expression in data set [1] was 0.659.

For chain 1 S101R, in the data set with fluorescein, the Kd was at least 10 µM. Besides, the yeast surface expression in data set [1] was determined as 0.731.

As to chain 1 S101V, the Kd in the data set with fluorescein was at least 10 µM. In addition, the yeast surface expression in data set [1] worked out at 0.496.

For the variant chain 1 S101Q, in the data set with fluorescein, the Kd is at least 10 µM. Further, the yeast surface expression in data set [1] turned out to be 0.788.

On to chain 1 S101N, for which, in the data set with fluorescein, the Kd was at least 10 µM. The yeast surface expression in data set [1] is 0.886.

As for chain 1 S101Q D106N, the Kd with fluorescein is at least 10 µM. Besides, the yeast surface expression in data set [1] was found to be 0.555.

In the case of chain 1 T28A N35Y W36V, the Kd in the data set with fluorescein is at least 10 µM. Moreover, the yeast surface expression in data set [1] is 0.297.

As for chain 1 T28D V37C, the Kd with fluorescein is at most 0.000316 µM. The yeast surface expression in data set [1] stood at 0.886.

Consider chain 1 T28D V37Q, for which, in the data set with fluorescein, the Kd was found to be 0.000804 µM. Also, in data set [1], the yeast surface expression is 0.726.

With chain 1 T28D V37G, the Kd with fluorescein amounted to 0.205 µM. In addition, the yeast surface expression in data set [1] was determined as 1.16.

In the case of chain 1 S101V M105H W108H, in the data set with fluorescein, the Kd was at least 10 µM. Besides, in data set [1], the yeast surface expression was determined as 0.3.

Consider chain 1 S101L Y103W Y107W, for which the Kd in the data set with fluorescein is at least 10 µM. For the same variant, in data set [1], the yeast surface expression turned out to be 0.29.

Regarding chain 1 T28A N35C, the Kd with fluorescein was at least 10 µM. The yeast surface expression in data set [1] came to 0.665.

In the case of chain 1 S101Y G109K, the Kd with fluorescein was at least 10 µM. Further, the yeast surface expression in data set [1] turned out to be 0.212.

As for chain 1 S101N G109N, in the data set with fluorescein, the Kd was at least 10 µM. Also, the yeast surface expression in data set [1] turned out to be 0.267.

In the case of chain 1 S101N G109D, the Kd in the data set with fluorescein was at least 10 µM. Also, the yeast surface expression in data set [1] was determined as 0.316.

chain 1 T28F S30T: the Kd with fluorescein was 0.00468 µM. Besides, the yeast surface expression in data set [1] is 0.857.

On to chain 1 S101W G109V, for which the Kd in the data set with fluorescein was at least 10 µM. Besides, the yeast surface expression in data set [1] is 0.224.

On to chain 1 S101W G109T, for which the Kd in the data set with fluorescein is at least 10 µM. Also, in data set [1], the yeast surface expression was found to be 0.212.

For the variant chain 1 T28G F29R Y32K, the Kd in the data set with fluorescein is at least 10 µM. Besides, in data set [1], the yeast surface expression was found to be 0.507.

For the variant chain 1 T28C S30I, the Kd in the data set with fluorescein amounted to 0.424 µM. Also, the yeast surface expression in data set [1] was 0.651.

Take chain 1 T28C S30K: in the data set with fluorescein, the Kd turned out to be 0.00104 µM. Besides, the yeast surface expression in data set [1] stood at 0.943.

For chain 1 T28F W36H, the Kd with fluorescein is at least 10 µM. Also, the yeast surface expression in data set [1] came to 0.598.

Take chain 1 S101Q G109S: in the data set with fluorescein, the Kd is at least 10 µM. Besides, the yeast surface expression in data set [1] was 0.645.

In the case of chain 1 S101M D106G, the Kd with fluorescein was at least 10 µM. The yeast surface expression in data set [1] was found to be 0.323.

chain 1 S101N Y102M: in the data set with fluorescein, the Kd was at least 10 µM. In addition, in data set [1], the yeast surface expression came to 0.944.

On to chain 1 T28C W33L, for which the Kd with fluorescein is at least 10 µM. The yeast surface expression in data set [1] was 0.742.

For the variant chain 1 T28E V37C, the Kd with fluorescein came to 0.000369 µM. In addition, the yeast surface expression in data set [1] worked out at 0.863.

For the variant chain 1 T28E V37T, the Kd with fluorescein amounted to 0.00493 µM. For the same variant, in data set [1], the yeast surface expression is 0.693.

With chain 1 S101Q Y102D Y107P, in the data set with fluorescein, the Kd was at least 10 µM. Besides, the yeast surface expression in data set [1] came out at 0.361.

Turning to chain 1 S101T D106Q, the Kd with fluorescein is at least 10 µM. Besides, the yeast surface expression in data set [1] came out at 0.796.

On to chain 1 S101Y W108V, for which, in the data set with fluorescein, the Kd was at least 10 µM. Moreover, the yeast surface expression in data set [1] came out at 0.397.

In the case of chain 1 S101L Y103S M105A, the Kd with fluorescein is at least 10 µM. Also, the yeast surface expression in data set [1] was determined as 0.713.

Turning to chain 1 S101V Y103F D106V, the Kd in the data set with fluorescein is at least 10 µM. The yeast surface expression in data set [1] stood at 0.283.

Turning to chain 1 S101W Y103R G104S, in the data set with fluorescein, the Kd is at least 10 µM. Also, the yeast surface expression in data set [1] turned out to be 0.468.

Take chain 1 S101N W108P: the Kd with fluorescein is at least 10 µM. Besides, the yeast surface expression in data set [1] stood at 0.506.
